In the supplement of paper PMC9112550, “Optimization of the antimicrobial peptide Bac7 by deep mutational scanning” (BMC Biology, 2022):

System: Escherichia coli TOP10
Assay: shrunken log2 fold change of peptide-encoding DNA abundance (4.5 h post-induction vs induction); higher = less antimicrobial activity (less host growth inhibition)
Conditions: time post-induction: 4.5 h; library: site-saturation at positions 5, 18, 19, 20
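Further: peptides expressed intracellularly from a pBAD plasmid library in pooled LB shake-flask culture, induced with 0.3% L-arabinose, DNA abundance read by NGS, three biological replicates, DESeq2 with apeglm shrinkage.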

RRIRPRPPRLPRPRPRPCNEPRP
shrunken log2 fold change: -0.16

RRIRPRPPRLPRPRPRPCNTPRP
shrunken log2 fold change: -0.333

RRIRPRPPRLPRPRPRPCPDPRP
shrunken log2 fold change: 0.0391

RRIRPRPPRLPRPRPRPCPKPRP
shrunken log2 fold change: -0.0283

RRIRPRPPRLPRPRPRPCQLPRP
shrunken log2 fold change: -0.659

RRIRPRPPRLPRPRPRPCQVPRP
shrunken log2 fold change: -0.132

RRIRPRPPRLPRPRPRPCREPRP
shrunken log2 fold change: -0.075

RRIRPRPPRLPRPRPRPCRVPRP
shrunken log2 fold change: -0.309

RRIRPRPPRLPRPRPRPCTYPRP
shrunken log2 fold change: -0.253

RRIRPRPPRLPRPRPRPCWDPRP
shrunken log2 fold change: -0.0457

RRIRPRPPRLPRPRPRPDACPRP
shrunken log2 fold change: 0.183

RRIRPRPPRLPRPRPRPDAWPRP
shrunken log2 fold change: 0.513

RRIRPRPPRLPRPRPRPDCKPRP
shrunken log2 fold change: -0.133

RRIRPRPPRLPRPRPRPDDNPRP
shrunken log2 fold change: -0.0275

RRIRPRPPRLPRPRPRPDEVPRP
shrunken log2 fold change: 0.188

RRIRPRPPRLPRPRPRPDFKPRP
shrunken log2 fold change: -0.464

RRIRPRPPRLPRPRPRPDFSPRP
shrunken log2 fold change: 0.0658

RRIRPRPPRLPRPRPRPDFWPRP
shrunken log2 fold change: 0.527

RRIRPRPPRLPRPRPRPDGSPRP
shrunken log2 fold change: -0.00717

RRIRPRPPRLPRPRPRPDGYPRP
shrunken log2 fold change: -0.246

RRIRPRPPRLPRPRPRPDHRPRP
shrunken log2 fold change: -0.0495

RRIRPRPPRLPRPRPRPDKHPRP
shrunken log2 fold change: -0.376

RRIRPRPPRLPRPRPRPDKIPRP
shrunken log2 fold change: -0.184

RRIRPRPPRLPRPRPRPDKPPRP
shrunken log2 fold change: -0.233

RRIRPRPPRLPRPRPRPDLGPRP
shrunken log2 fold change: 0.215

RRIRPRPPRLPRPRPRPDMFPRP
shrunken log2 fold change: 2.58

RRIRPRPPRLPRPRPRPDMQPRP
shrunken log2 fold change: -0.21

RRIRPRPPRLPRPRPRPDPQPRP
shrunken log2 fold change: -0.0397

RRIRPRPPRLPRPRPRPDQHPRP
shrunken log2 fold change: -0.0313

RRIRPRPPRLPRPRPRPDQYPRP
shrunken log2 fold change: -0.114

RRIRPRPPRLPRPRPRPDRKPRP
shrunken log2 fold change: -0.124

RRIRPRPPRLPRPRPRPDRQPRP
shrunken log2 fold change: 0.099

RRIRPRPPRLPRPRPRPDRVPRP
shrunken log2 fold change: 0.187

RRIRPRPPRLPRPRPRPDVCPRP
shrunken log2 fold change: -0.00807

RRIRPRPPRLPRPRPRPDVEPRP
shrunken log2 fold change: -0.0392

RRIRPRPPRLPRPRPRPDVHPRP
shrunken log2 fold change: -0.0196

RRIRPRPPRLPRPRPRPDWQPRP
shrunken log2 fold change: -0.0976

RRIRPRPPRLPRPRPRPDYHPRP
shrunken log2 fold change: -0.815

RRIRPRPPRLPRPRPRPEDPPRP
shrunken log2 fold change: 0.122

RRIRPRPPRLPRPRPRPEEIPRP
shrunken log2 fold change: -0.00277

RRIRPRPPRLPRPRPRPEERPRP
shrunken log2 fold change: -0.0232

RRIRPRPPRLPRPRPRPEEVPRP
shrunken log2 fold change: 0.0532

RRIRPRPPRLPRPRPRPEFDPRP
shrunken log2 fold change: 0.33

RRIRPRPPRLPRPRPRPEFHPRP
shrunken log2 fold change: -0.0272

RRIRPRPPRLPRPRPRPEFKPRP
shrunken log2 fold change: 0.26

RRIRPRPPRLPRPRPRPEFYPRP
shrunken log2 fold change: -0.173

RRIRPRPPRLPRPRPRPEGEPRP
shrunken log2 fold change: 0.302

RRIRPRPPRLPRPRPRPEHLPRP
shrunken log2 fold change: -0.109

RRIRPRPPRLPRPRPRPEIKPRP
shrunken log2 fold change: 0.0782

RRIRPRPPRLPRPRPRPEIYPRP
shrunken log2 fold change: 0.0694

RRIRPRPPRLPRPRPRPEKLPRP
shrunken log2 fold change: 0.226

RRIRPRPPRLPRPRPRPEKQPRP
shrunken log2 fold change: -0.0353

RRIRPRPPRLPRPRPRPEKRPRP
shrunken log2 fold change: 0.0688

RRIRPRPPRLPRPRPRPENGPRP
shrunken log2 fold change: -0.0225

RRIRPRPPRLPRPRPRPEPFPRP
shrunken log2 fold change: 0.454

RRIRPRPPRLPRPRPRPEQSPRP
shrunken log2 fold change: 0.289

RRIRPRPPRLPRPRPRPESGPRP
shrunken log2 fold change: 0.415

RRIRPRPPRLPRPRPRPEVAPRP
shrunken log2 fold change: 0.212

RRIRPRPPRLPRPRPRPEWRPRP
shrunken log2 fold change: 0.362

RRIRPRPPRLPRPRPRPEYAPRP
shrunken log2 fold change: 0.0857

RRIRPRPPRLPRPRPRPEYHPRP
shrunken log2 fold change: -0.0649

RRIRPRPPRLPRPRPRPEYSPRP
shrunken log2 fold change: -0.117

RRIRPRPPRLPRPRPRPFANPRP
shrunken log2 fold change: -0.0686

RRIRPRPPRLPRPRPRPFCEPRP
shrunken log2 fold change: 0.0972

RRIRPRPPRLPRPRPRPFDDPRP
shrunken log2 fold change: -0.189

RRIRPRPPRLPRPRPRPFEIPRP
shrunken log2 fold change: -0.0325

RRIRPRPPRLPRPRPRPFEKPRP
shrunken log2 fold change: 0.0465

RRIRPRPPRLPRPRPRPFGGPRP
shrunken log2 fold change: 0.0321

RRIRPRPPRLPRPRPRPFHDPRP
shrunken log2 fold change: 0.000303

RRIRPRPPRLPRPRPRPFIAPRP
shrunken log2 fold change: -0.342

RRIRPRPPRLPRPRPRPFIMPRP
shrunken log2 fold change: -0.426

RRIRPRPPRLPRPRPRPFIYPRP
shrunken log2 fold change: -0.0739

RRIRPRPPRLPRPRPRPFKFPRP
shrunken log2 fold change: -0.469

RRIRPRPPRLPRPRPRPFLWPRP
shrunken log2 fold change: 0.0275

RRIRPRPPRLPRPRPRPFNGPRP
shrunken log2 fold change: -0.014

RRIRPRPPRLPRPRPRPFNIPRP
shrunken log2 fold change: -0.293

RRIRPRPPRLPRPRPRPFQDPRP
shrunken log2 fold change: -0.0806

RRIRPRPPRLPRPRPRPFQYPRP
shrunken log2 fold change: -0.179

RRIRPRPPRLPRPRPRPFVAPRP
shrunken log2 fold change: -0.186

RRIRPRPPRLPRPRPRPFVRPRP
shrunken log2 fold change: -0.117

RRIRPRPPRLPRPRPRPFVTPRP
shrunken log2 fold change: -0.102

RRIRPRPPRLPRPRPRPFWFPRP
shrunken log2 fold change: -0.0717

RRIRPRPPRLPRPRPRPFWSPRP
shrunken log2 fold change: -0.143

RRIRPRPPRLPRPRPRPGCGPRP
shrunken log2 fold change: 0.514

RRIRPRPPRLPRPRPRPGCHPRP
shrunken log2 fold change: 0.332

RRIRPRPPRLPRPRPRPGEFPRP
shrunken log2 fold change: 0.318

RRIRPRPPRLPRPRPRPGENPRP
shrunken log2 fold change: 0.184

RRIRPRPPRLPRPRPRPGEQPRP
shrunken log2 fold change: 1.29

RRIRPRPPRLPRPRPRPGHDPRP
shrunken log2 fold change: 0.235

RRIRPRPPRLPRPRPRPGHFPRP
shrunken log2 fold change: 0.0437

RRIRPRPPRLPRPRPRPGIFPRP
shrunken log2 fold change: 0.0736

RRIRPRPPRLPRPRPRPGMHPRP
shrunken log2 fold change: 0.206

RRIRPRPPRLPRPRPRPGNPPRP
shrunken log2 fold change: -0.043

RRIRPRPPRLPRPRPRPGPIPRP
shrunken log2 fold change: 0.148

RRIRPRPPRLPRPRPRPGQFPRP
shrunken log2 fold change: -0.0723

RRIRPRPPRLPRPRPRPGRIPRP
shrunken log2 fold change: 0.0185

RRIRPRPPRLPRPRPRPGSKPRP
shrunken log2 fold change: -0.0791

RRIRPRPPRLPRPRPRPGSVPRP
shrunken log2 fold change: 0.0512

RRIRPRPPRLPRPRPRPGSWPRP
shrunken log2 fold change: 0.941

RRIRPRPPRLPRPRPRPGVEPRP
shrunken log2 fold change: 0.249

RRIRPRPPRLPRPRPRPGVPPRP
shrunken log2 fold change: 0.301

RRIRPRPPRLPRPRPRPGYGPRP
shrunken log2 fold change: 0.0799

RRIRPRPPRLPRPRPRPGYNPRP
shrunken log2 fold change: -0.552

RRIRPRPPRLPRPRPRPHADPRP
shrunken log2 fold change: -0.161

RRIRPRPPRLPRPRPRPHCGPRP
shrunken log2 fold change: -0.168

RRIRPRPPRLPRPRPRPHCKPRP
shrunken log2 fold change: -0.633

RRIRPRPPRLPRPRPRPHCMPRP
shrunken log2 fold change: -0.195

RRIRPRPPRLPRPRPRPHDAPRP
shrunken log2 fold change: 0.0201

RRIRPRPPRLPRPRPRPHEYPRP
shrunken log2 fold change: -0.25
